Experimental findings from patent US8906858B2, “Method for the prophylactic or therapeutic treatment of glucocorticoid-induced osteoporosis” (Fritz-Lipmann-Institut E. V. Leibniz-Institut Fuer …, priority 2010, dated 2014) are described below.

For the assay, the system named is primary wild type osteoblasts. In words: Soluble factors added to osteoblasts during osteogenic induction in presence or absence of Dex. Format: cell-based, mouse. As for the experimental part: FIG. 7. Differential gene regulation in GR^dim osteoblasts and bone organs by GCs and involvement of AP-1 in suppression of IL-11 in osteoblast differentiation. (A-E) Primary osteoblasts were grown until confluence and treated as described in FIG. 4A. qRT-PCR-determined mRNA expression levels of GILZ, Per-1, KLF15, Lif (LIF) and II11 (IL-11) after six hours. (F-H) qRT-PCR-determined mRNA expression level of IL-11 in organ cultures of GR mutant fetal hind legs (F), in dN^Runx2Cre osteoblasts (G) and c-jun^null MEFs (H) after six hours treatment. (I) Chromatin immunoprecipitation of MEFs after six hours. […] IgG precipitation served as negative control and amplification of the input as positive control. […] At day 10, ALP activity was determined and at day 20, Alizarin Red staining was performed. (K) Quantification of ALP-positive cells treated as in (J) after 10 days. (L) qRT-PCR-determined Runx2 mRNA expression level in cells treated as in (J) after 10 days.
FIG. 13. Effects of GR regulated soluble factors on osteoblast cell numbers. […] At day 10 cell counts were determined by automatic microscopy. Data are represented as mean+/−SEM. *<0.05.
FIG. 14. Effects of GR regulated soluble factors on osteoblast cell differentiation. Primary wild type osteoblasts were differentiated with or without Dex. At day 10 the specific ALP activity was determined and is depicted as ALP positive cells in percent in the absence or presence of NGF (A), IL-6 (B), EGF (C) and LIF (D). Data are represented as mean+/−SEM. * p<0.05; ** p<0.01.
Primary osteoblasts were isolated from either embryonic (E18.5) or neonatal calvaria by sequential digestions and cultivated as previously described (David et al., 2005). c-Jun-deficient cells were obtained from previously described mice (Schreiber et al., 1999). […] Differentiation of osteoblasts was determined by staining for ALP activity (ALP kit, Sigma or ELF® Phosphatase Detection Kit, ATCC) or by Alizarin Red staining (Sigma) at indicated time points. Apoptosis was detected by In situ Cell Death Detection Kit (Roche), and proliferation with fluorescent immunohistochemistry using mouse anti-Ki-67 (BD Pharmingen™) and Alexa Fluor® 594-labeled donkey anti-mouse IgG (Molecular Probes™). Quantification of the stainings and cell numbers according to DAPI labeling was performed by automated microscopy using Cellomics ArrayScan and software HCS Scan® (Thermo-Fischer). The factors EGF (Calbiochem), NGF2 (Sigma), IL-6 (ImmunoTools), IL-11 (Antigenix America, Inc.) and LIF (Chemicon) were added to the culture after differentiation at concentrations of 0.8, 4 and 20 ng/ml. qRT-PCR was performed as previously described (Tuckermann et al., 2007). Primer information can be provided upon request.

B1: IL-11: recombinant Interleukin-11 (protein, UniProt P20809 22-199, looked up)
Interleukin-11: PGPPPGPPRVSPDPRAELDSTVLLTRSLLADTRQLAAQLRDKFPADGDHNLDSLPTLAMSAGALGALQLPGVLTRLRADLLSYLRHVQWLRRAGGSSLKTLEPELGTLQARLDRLLRRLQLLMSRLALPQPPPDPPAPPLAPPSSAWGGIRAAHAILGGLHLTLDWAVRGLLLLKTRL
Regarding B1, where the note is “day 10, with Dex”, the “rescue of Dex-impaired osteoblast differentiation (ALP positive cells)” value is listed as “potently antagonized” and the “rescue of Dex-reduced osteoblast cell numbers” value is “not rescuing”. For the same molecule, for the setting “in the presence of IL-11”, the “Dex suppression of ALP activity, of Runx2 expression and calcification” value is listed as “fully restored”.

B2: HB-EGF: heparin binding-epidermal growth factor (protein, UniProt Q99075 63-148, looked up)
Heparin-binding EGF-like …: DLQEADLDLLRVTLSSKPQALATPNKEEHGKRKKKGKGLGKKRDPCLRKYKDFCIHGECKYVKELRAPSCICHPGYHGERCHGLSL
As for B2, the “effect on osteoblast differentiation” value is “inhibitory effect”.
